The target in this data set is T1, KpnDRT2 reverse transcriptase (Klebsiella pneumoniae).
T1 chain: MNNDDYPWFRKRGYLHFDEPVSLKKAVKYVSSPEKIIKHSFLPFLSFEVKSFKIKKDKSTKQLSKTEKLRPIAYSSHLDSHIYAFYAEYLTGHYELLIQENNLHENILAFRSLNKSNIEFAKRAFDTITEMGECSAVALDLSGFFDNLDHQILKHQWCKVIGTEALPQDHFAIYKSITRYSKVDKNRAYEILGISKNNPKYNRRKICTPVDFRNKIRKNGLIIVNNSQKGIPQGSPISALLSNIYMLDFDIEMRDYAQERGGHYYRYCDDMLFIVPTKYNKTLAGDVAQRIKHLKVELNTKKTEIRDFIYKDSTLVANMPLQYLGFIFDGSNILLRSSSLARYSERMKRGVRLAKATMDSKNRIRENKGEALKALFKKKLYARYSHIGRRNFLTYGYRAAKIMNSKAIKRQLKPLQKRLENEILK
Kind of data set: EMSA; 20 mM HEPES pH 7.5, 5 mM MgCl2, 200 mM NaCl, 37 C. Particulars: tags: N-terminal His6-GST removed by TEV; C-terminal StrepII; stem-loops SL1-SL8. The method, then: To test binding of the ncRNA by the RT, the purified ncRNA was mixed with increasing amounts of the RT in reaction buffer (20 mM HEPES pH 7.5, 5 mM MgCl₂, 5% glycerol, 200 mM NaCl, and 1 mM DTT). Samples were incubated at 37° C. for 15 minutes and analyzed by electrophoretic mobility shift assay (EMSA). The shift in mobility at higher concentrations of RT enzyme indicates binding of the ncRNA by the RT (FIG. 14A).
In general terms: In EMSA bound probe runs differently from free probe, usually more slowly.

This is an account of results in US20260258465, “NUCLEIC ACID-GUIDED DNA SYNTHESIS” (The Trustees of Columbia University in the City of New York, published 2026).

B1: KpnDRT2 ncRNA WT (ssRNA)
RNA: GCCCUAAACAAAGGUUUAGGGGUAUUGUACAGGUUGUCAAGCCUCCCACAGGUCUUGGUGAAACCAAUCACUGUGACGACGGUAAGCAACACUUGGAUGAUAUUCAUAAUUGACUCCACGCUACUGAUUACAUUAUACAGCAUAUCUAACAUUUGCGGCGAGGUUCACAAUUUGUAUUUAGGUACUGAUUGUGGAUGAGAAGGUUGGAGAAAGACCACUUGGUUAAGCCGGAGGAUGUGUCCUAGAAUUGUCGCUAUUCUGUCAUCCUCCGGUUUUGCUAA
On to B1, for which the binding result is recorded as “binds”.
